Reference: patent publication US20250171562A1 (ALK ABELL, published 2025)

B1: F5A1(G4S)4 (bispecific antibody)
chain: DVQLQESGGGLVQPGGSLRLSCAASGSIFSIDIMGWYRQAPGKQRELVATMPEGNYINYADSVKGRLTLSRDKGKNTVYLQLNSLKPEDTAVYYCYGFGVREGRGNVYWGQGTQVTVSGGGGSGGGGSGGGGSGGGGSEVQLLESGGGLVQPGGSLRLSCAASGFTFGNYDMAWVRQAPGKRPEWVSSIDTGGDITHYADSVKGRFTISRDNAKNTLYLQMNSLRPEDTAVYWCATDEEYALGPNEFDYYGQGTLVTVS
B2: A1B1(G4S)1 (bispecific antibody)
chain: EVQLLESGGGLVQPGGSLRLSCAASGFTFGNYDMAWVRQAPGKRPEWVSSIDTGGDITHYADSVKGRFTISRDNAKNTLYLQMNSLRPEDTAVYWCATDEEYALGPNEFDYYGQGTLVTVSSGGGGSQVQLQESGGGLVQTGGSLRLSCAVHGRTFSNTGMGWFRQAPGNERQFVAIISPSGTSTYYADSVKGRFTISRDPAKNTVYLQMNSLKMDDTAVYYCAASYGSNWSTLRHQRRNEYDAWGQGTQVAVS
B3: A1B1(G4S)3 (bispecific antibody)
chain: EVQLLESGGGLVQPGGSLRLSCAASGFTFGNYDMAWVRQAPGKRPEWVSSIDTGGDITHYADSVKGRFTISRDNAKNTLYLQMNSLRPEDTAVYWCATDEEYALGPNEFDYYGQGTLVTVSSGGGGSGGGGSGGGGSQVQLQESGGGLVQTGGSLRLSCAVHGRTFSNTGMGWFRQAPGNERQFVAIISPSGTSTYYADSVKGRFTISRDPAKNTVYLQMNSLKMDDTAVYYCAASYGSNWSTLRHQRRNEYDAWGQGTQVAVS
B4: B1A1(G4S)1 (bispecific antibody)
chain: QVQLQESGGGLVQTGGSLRLSCAVHGRTFSNTGMGWFRQAPGNERQFVAIISPSGTSTYYADSVKGRFTISRDPAKNTVYLQMNSLKMDDTAVYYCAASYGSNWSTLRHQRRNEYDAWGQGTQVAVSGGGGSEVQLLESGGGLVQPGGSLRLSCAASGFTFGNYDMAWVRQAPGKRPEWVSSIDTGGDITHYADSVKGRFTISRDNAKNTLYLQMNSLRPEDTAVYWCATDEEYALGPNEFDYYGQGTLVTVSS
B5: B1A1(G4S)2 (bispecific antibody)
chain: QVQLQESGGGLVQTGGSLRLSCAVHGRTFSNTGMGWFRQAPGNERQFVAIISPSGTSTYYADSVKGRFTISRDPAKNTVYLQMNSLKMDDTAVYYCAASYGSNWSTLRHQRRNEYDAWGQGTQVAVSGGGGSGGGGSEVQLLESGGGLVQPGGSLRLSCAASGFTFGNYDMAWVRQAPGKRPEWVSSIDTGGDITHYADSVKGRFTISRDNAKNTLYLQMNSLRPEDTAVYWCATDEEYALGPNEFDYYGQGTLVTVSS
B6: B1A1(G4S)3 (bispecific antibody)
chain: QVQLQESGGGLVQTGGSLRLSCAVHGRTFSNTGMGWFRQAPGNERQFVAIISPSGTSTYYADSVKGRFTISRDPAKNTVYLQMNSLKMDDTAVYYCAASYGSNWSTLRHQRRNEYDAWGQGTQVAVSGGGGSGGGGSGGGGSEVQLLESGGGLVQPGGSLRLSCAASGFTFGNYDMAWVRQAPGKRPEWVSSIDTGGDITHYADSVKGRFTISRDNAKNTLYLQMNSLRPEDTAVYWCATDEEYALGPNEFDYYGQGTLVTVSS
B7: sdAb A2 (VHH)
VHH: EVQLLESGGGLVQPGGSLRLSCAASGFRFGNYDMAWVRQAPGKRYEWVSSIDTGGDITHYADSVKGRFTISRDNAKNTLYLQMNSLRPEDTAEYWCATDEEYALGPNEFDYYGQGTLVTVS
notes: also called A1 triple mutant (T28R, P45Y, V93E)
B8: sdAb F6 (VHH)
VHH: DVQLQESGGGLVQAGGSLRLSCAASGLTFGSYDMGWYRQAPGKQRELVGRIRNDGITYYADSVKGRFTMSRDNAKNTVYLQMNSLKPEDTAVYYCAADGTGLGHYDYWGQGTQVTVS
B9: NIgG4B1A1(RS) (Fc fusion)
chain 1: QVQLQESGGGLVQTGGSLRLSCAVHGRTFSNTGMGWFRQAPGNERQFVAIISPSGTSTYYADSVKGRFTISRDPAKNTVYLQMNSLKMDDTAVYYCAASYGSNWSTLRHQRRNEYDAWGQGTQVAVSRSGPPCPPCPAPEFLGGPSVFLFPPKPKDTLMISRTPEVTCVVVDVSQEDPEVQFNWYVDGVEVHNAKTKPREEQFNSTYRVVSVLTVLHQDWLNGKEYKCKVSNKGLPSSIEKTISKAKGQPREPQVYTLPPCQEEMTKNQVSLWCLVKGFYPSDIAVEWESNGQPENNYKTTPPVLDSDGSFFLYSRLTVDKSRWQEGNVFSCSVMHEALHNHYTQKSLSLSLGK
chain 2: EVQLLESGGGLVQPGGSLRLSCAASGFTFGNYDMAWVRQAPGKRPEWVSSIDTGGDITHYADSVKGRFTISRDNAKNTLYLQMNSLRPEDTAVYWCATDEEYALGPNEFDYYGQGTLVTVSSRSGPPCPPCPAPEFLGGPSVFLFPPKPKDTLMISRTPEVTCVVVDVSQEDPEVQFNWYVDGVEVHNAKTKPREEQFNSTYRVVSVLTVLHQDWLNGKEYKCKVSNKGLPSSIEKTISKAKGQPREPQVCTLPPSQEEMTKNQVSLSCAVKGFYPSDIAVEWESNGQPENNYKTTPPVLDSDGSFFLVSRLTVDKSRWQEGNVFSCSVMHEALHNHYTQKSLSLSLGK
notes: same for the Fc fusions below
B10: NIgG4B1A1(G4S)1 (Fc fusion)
chain 1: QVQLQESGGGLVQTGGSLRLSCAVHGRTFSNTGMGWFRQAPGNERQFVAIISPSGTSTYYADSVKGRFTISRDPAKNTVYLQMNSLKMDDTAVYYCAASYGSNWSTLRHQRRNEYDAWGQGTQVAVSGGGGSGPPCPPCPAPEFLGGPSVFLFPPKPKDTLMISRTPEVTCVVVDVSQEDPEVQFNWYVDGVEVHNAKTKPREEQFNSTYRVVSVLTVLHQDWLNGKEYKCKVSNKGLPSSIEKTISKAKGQPREPQVYTLPPCQEEMTKNQVSLWCLVKGFYPSDIAVEWESNGQPENNYKTTPPVLDSDGSFFLYSRLTVDKSRWQEGNVFSCSVMHEALHNHYTQKSLSLSLGK
chain 2: EVQLLESGGGLVQPGGSLRLSCAASGFTFGNYDMAWVRQAPGKRPEWVSSIDTGGDITHYADSVKGRFTISRDNAKNTLYLQMNSLRPEDTAVYWCATDEEYALGPNEFDYYGQGTLVTVSSGGGGSGPPCPPCPAPEFLGGPSVFLFPPKPKDTLMISRTPEVTCVVVDVSQEDPEVQFNWYVDGVEVHNAKTKPREEQFNSTYRVVSVLTVLHQDWLNGKEYKCKVSNKGLPSSIEKTISKAKGQPREPQVCTLPPSQEEMTKNQVSLSCAVKGFYPSDIAVEWESNGQPENNYKTTPPVLDSDGSFFLVSRLTVDKSRWQEGNVFSCSVMHEALHNHYTQKSLSLSLGK
B11: NIgG4B1A1(G4S)2 (Fc fusion)
chain 1: QVQLQESGGGLVQTGGSLRLSCAVHGRTFSNTGMGWFRQAPGNERQFVAIISPSGTSTYYADSVKGRFTISRDPAKNTVYLQMNSLKMDDTAVYYCAASYGSNWSTLRHQRRNEYDAWGQGTQVAVSGGGGSGGGGSGPPCPPCPAPEFLGGPSVFLFPPKPKDTLMISRTPEVTCVVVDVSQEDPEVQFNWYVDGVEVHNAKTKPREEQFNSTYRVVSVLTVLHQDWLNGKEYKCKVSNKGLPSSIEKTISKAKGQPREPQVYTLPPCQEEMTKNQVSLWCLVKGFYPSDIAVEWESNGQPENNYKTTPPVLDSDGSFFLYSRLTVDKSRWQEGNVFSCSVMHEALHNHYTQKSLSLSLGK
chain 2: EVQLLESGGGLVQPGGSLRLSCAASGFTFGNYDMAWVRQAPGKRPEWVSSIDTGGDITHYADSVKGRFTISRDNAKNTLYLQMNSLRPEDTAVYWCATDEEYALGPNEFDYYGQGTLVTVSSGGGGSGGGGSGPPCPPCPAPEFLGGPSVFLFPPKPKDTLMISRTPEVTCVVVDVSQEDPEVQFNWYVDGVEVHNAKTKPREEQFNSTYRVVSVLTVLHQDWLNGKEYKCKVSNKGLPSSIEKTISKAKGQPREPQVCTLPPSQEEMTKNQVSLSCAVKGFYPSDIAVEWESNGQPENNYKTTPPVLDSDGSFFLVSRLTVDKSRWQEGNVFSCSVMHEALHNHYTQKSLSLSLGK

Target: T1, recombinant human IgE (human, UniProt P01854-1 1-428)
T1 construct: made in-house (ALK); preloaded on immobilised FcεRIα in the displacement ELISA
T1 sequence (P01854 other isoform, or with tags, fused parts or gaps): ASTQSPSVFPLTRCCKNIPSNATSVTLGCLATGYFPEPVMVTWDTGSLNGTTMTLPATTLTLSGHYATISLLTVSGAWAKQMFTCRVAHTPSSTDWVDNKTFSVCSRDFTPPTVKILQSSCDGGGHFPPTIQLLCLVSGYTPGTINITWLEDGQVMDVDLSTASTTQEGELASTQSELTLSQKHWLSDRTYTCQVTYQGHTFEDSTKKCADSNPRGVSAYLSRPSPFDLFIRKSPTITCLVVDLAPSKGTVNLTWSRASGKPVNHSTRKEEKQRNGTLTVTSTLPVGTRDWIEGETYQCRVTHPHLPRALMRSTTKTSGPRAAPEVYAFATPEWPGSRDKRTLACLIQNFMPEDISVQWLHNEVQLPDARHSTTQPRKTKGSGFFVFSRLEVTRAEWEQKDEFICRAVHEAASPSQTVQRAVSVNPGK
Assay: IgE-FcεRIα displacement ELISA
Protocol: The displacement effect was tested using IgE-FcεRIα displacement ELISA assay. Maxisorp® microtiter plates (Thermo Scientific Nunc, Roskilde, Denmark) were coated with 100 μl streptavidin, 5 μg/ml (Thermo Scientific, Waltham, MA) for 18 h at 4° C. followed by wash with 300 μl washing buffer (PBS containing 0.05% Tween 20) using an AquaMax® 2000 plate washer (Molecular Devices, San Jose, CA). Remaining binding sites were blocked with 250 μl blocking buffer (PBS containing 2% BSA) for 2 h and washed with 300 μl washing buffer. Subsequently, the bound streptavidin was loaded with 100 μl (0.1 μg/ml) recombinant human FcεRIα (site specific biotinylated via avi-tag, made in-house, ALK, Hørsholm, Denmark) for 1 h and plates washed twice with 300 μl washing buffer. The bound receptor was then loaded with 100 μl recombinant human IgE (made in-house, ALK, Hørsholm, Denmark), 13 ng/ml (pre-titrated to reach an OD₄₅₀ signal in the range of 1.5-2.5 in the absence of displacement components) for 1h followed by three washes of 300 μl washing buffer.
displacement step: 100 μl sdAbs diluted in concentration series (pM-μM range) or blocking buffer only as a non-displacement negative control, were added to the ELISA wells and incubated for 1 h. Any IgE, displaced from the receptor by a sdAb was washed away by three washes of 300 μl washing buffer.
The ability of the various sdAbs to displace IgE from the receptor (FcεRIα) was evaluated by use of the ELISA based IgE-FcεRIα displacement assay. The percent displacement effect was calculated as the relative reduction in signal compared to the control with no sdAb added. The EC₅₀ values and the maximal effects were determined (table 15).

Row | Binder | EC50 | Max effect
1 | B1 | 1100 nM | 75%
2 | B2 | 1 nM | > 95%
3 | B3 | 0.6 nM | > 95%
4 | B4 | 5.3 nM | > 95%
5 | B5 | 10 nM | > 95%
6 | B6 | 5.3 nM | > 95%
7 | B7 | 250 nM | > 95%
8 | B8 | – | < 20%
9 | B9 | 1.9 nM | > 95%
10 | B10 | 1.1 nM | > 95%
11 | B11 | 1.4 nM | > 95%
